Results on one molecule are retold here after publication PMC5703946, “Modification and functional adaptation of the MBF1 gene family in the lichenized fungus Endocarpon pusillum under environmental stress” (Scientific Reports, 2017).

In the test the target is T1, His-yTBP (yeast TATA-box-binding protein) (S. cerevisiae, UniProt P13393 1-240).
T1 sequence (looked up): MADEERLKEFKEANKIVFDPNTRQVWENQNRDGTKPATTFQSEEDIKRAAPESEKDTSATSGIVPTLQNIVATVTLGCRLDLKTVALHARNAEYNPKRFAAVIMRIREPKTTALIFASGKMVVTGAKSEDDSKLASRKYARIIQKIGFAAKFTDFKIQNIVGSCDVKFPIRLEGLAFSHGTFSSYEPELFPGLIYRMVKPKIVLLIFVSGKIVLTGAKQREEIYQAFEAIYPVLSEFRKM
The test can be described thus: pull-down; His-yTBP held on Ni-NTA agarose beads (from soluble E. coli lysate, washed three times); equal amounts of purified GST-MBF1 proteins or purified GST incubated with the beads for 4 h at 4 °C; beads washed three times; detected by immunoblot (Wes) with anti-His and anti-GST antibodies. To be noted: both partners purified.

B1: GST-yMBF1 (Saccharomyces cerevisiae multiprotein-bridging factor 1) (natural protein, S. cerevisiae, UniProt O14467 1-151, looked up)
chain: MSDWDTNTIIGSRARAGGSGPRANVARSQGQINAARRQGLVVSVDKKYGSTNTRGDNEGQRLTKVDRETDIVKPKKLDPNVGRAISRARTDKKMSQKDLATKINEKPTVVNDYEAARAIPNQQVLSKLERALGVKLRGNNIGSPLGAPKKK
notes: MBF1 of Saccharomyces cerevisiae (amino acids 1 to 151 by the domain limits in the methods); source: E. coli BL21, purified (glutathione agarose beads, eluted)
On to B1, for which the binding result is listed as “binds”.
